Data: article PMC2988878 (Nature structural & molecular biology, 2010)
Where no end group is shown, it is not given here.

B1: Mpa coiled-coil domain, residues 46-96 (Mpa46-96) (domain or fragment)
chain: SHAPTRSARDIHQLEARIDSLAARNSKLMETLKEARQQLLALREEVDRLGQ
B2: Full-length prokaryotic ubiquitin-like protein, Pup1-64-GGQ with a C-terminal non-cleavable His6-tag (natural protein)
chain: MAQEQTKRGGGGGDDDDIAGSTAAGQERREKLTEETDDLLDEIDDVLEENAEDFVRAYVQKGGQ

Columns and labels:
Assay in all cases: […]
[1] = target: B1
[2] = target: B2
[3] = target: T1, Mpa residues 1-96 (Mpa1-96) (Mycobacterium tuberculosis, UniProt P9WQN5 1-96)
T1 sequence: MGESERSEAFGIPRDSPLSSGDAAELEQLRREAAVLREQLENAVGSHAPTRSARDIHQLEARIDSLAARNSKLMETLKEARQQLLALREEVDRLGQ

{His6‑tag}-STAAGQERREKLTEETDDLLDEIDDVLEENAEDFVRAYVQKGGE (domain or fragment, not fully specified) [N-terminal truncated prokaryotic ubiquitin-like protein, Pup21-64-GGE with an N-terminal His6-tag]
binding result [1]: binds

B1
binding result [2]: binds

B2
binding result [3]: binds
